The target of assay [1] is T1, human BAFF-R expressed on cells (hBAFF-R-CHO isogenic CHO cells; BAFF-R+ cancer cells) (human, UniProt Q96RJ3 1-184).
T1 construct: whole, on cells; also called hBAFF-R^+ cells; BAFF-R+ CHO cells
The assay is described as follows: flow cytometry on hBAFFR-CHO cells, anti-mouse IgG(H+L)-PE.

Assay [2] deals with T1, human BAFF-R expressed on cells …. The description is as above. The source holds these as a separate data set.

Read-outs that look alike come from different tables or passages of the source.

B1: 10H7-C5 (antibody, V domains shown)
VH: EVQLVESGGGLVKPGGSLKLSCAASGFSFSRYAMSWVRQTPEKRLEWVATISDGGSYTHYRDNVKGRFTISRDNAKNNLNLQMSHLKSEDTAIYYCARNEMGLYFDYDVYAMDYWGQGTSVTVSS
VL: DIVMTQTPLSLPVSLGDQASISCRSSQSLLHSNGNTYLYWYLQKPGQSPKLLIHRVSNRFSGVPDRFGGSGSGTDFTLKIIRVEAEDLGVYFCFQGTHVPWTFGGGTKLEIK
notes: Hybridoma clone from DNA-immunized SWR/J mice; also called clone 10H7-C5
On to B1, for which the “EC50 (read off the curve)” value in assay [1] was about 1 nM.

B2: 1B3-A7 (antibody, V domains shown)
VH: EVQLVESGGGLVKPGGSLKLSCVVSGFTFSNYAMSWVRQTPEKRLEWVATISDGGGYTYYPDSVKGRFTISRDNAKNNLYLQMSHLKSEDTAIYYCARDDLGGGNYVSSYFDVWGTGTTVTVSS
VL: DVVMTQTPLSLPVSPGDQASISCRSSQSLVHSNGNTYLYWYLQKPGQSPKLLIYRVSNRFSGVPDRFSGSGSGTDFTLKINRVEAEDLGVYFCFQGTHVPLTFGSGTKLELK
notes: Hybridoma clone from DNA-immunized SWR/J mice; also called clone 1B3-A7
With B2, the “EC50 (read off the curve)” value in assay [1] was in the range of 1 to 2 nM.

B3: 3A1 (antibody, V domains shown)
VH: QVQLQQPGAELVKPGASVKLSCKASGYTFTSYWMHWVKQRPGQGLEWIGEIDPFDSYTNYNQNFKGKATLTVDKSSSTAYMLLSSLTSDDSAVYYCARERLRLWSYYFDYWGQGTTLTVSS
VL: DVVMTQTPLSLPVSLGDQASISCRSSQSIVHSNGNTYLEWYLQKPGQSPKLLIYKVSNRLSGVPDRFSGSGSGTDFTLKISRVEAEDLGVYYCFQGSHDPFTFGSGTKLEIK
notes: Hybridoma clone from DNA-immunized SWR/J mice; also called clone 3A1
With B3, in assay [2], the “EC50 (read off the curve)” value is about 0.3 nM.

B4: 7G4 (antibody, V domains shown)
VH: QVQLQQPGAELVKPGASVKLSCKASGYTFTSYWMHWVKQRPGQGLEWIGEVDPSDSYTNYNQKFKGKATLTVDKSSSTAYILLSNLTSDDSAVYYCARERVRLWSYFFDYWGQGTTLTVSS
VL: DVVMTQTPLSLPVSLGDQASISCRSSQSIVHSNGNTYLEWYLQKPGQSPKLLIYKVSNRLSGVPDRFSGSGSGTDFTLKISRVEAEDLGVYYCFQGSHDPFTFGSGTKLEIK
notes: Hybridoma clone from DNA-immunized SWR/J mice; also called clone 7G4
Turning to B4, the “EC50 (read off the curve)” value in assay [2] was about 0.3 nM.

For orientation: EC50 (read off the curve) means the concentration at which the effect is half-maximal.

Source of the values: US20240228645A1 (DRAGONFLY THERAPEUTICS, published 2024).
